From patent EP4559472A1 come the findings set out here.

This assay concerns the target Biotinylated C4b (UniProt P0C0L4). Put plainly: SPR, biotinylated C4b on streptavidin chip, 1:1 steady-state affinity model. A general note: SPR reads the build-up and loss of mass on a sensor chip optically.

B1: C4BP(1-4) (protein)
chain: AGNCGPPPTLSFAAPMDITLTETRFKTGTTLKYTCLPGYVRSHSTQTLTCNSDGEWVYNTFCIYKRCRHPGELRNGQVEIKTDLSFGSQIEFSCSEGFFLIGSTTSRCEVQDRGVGWSHPLPQCEIVKCKPPPDIRNGRHSGEENFYAYGFSVTYSCDPRFSLLGHASISCTVENETIGVWRPSPPTCEKITCRKPDVSHGEMVSGFGPIYNYKDTIVFKCQKGFVLRGSSVIHCDADSKWNPSPPACEP
What is called Kd is a measure of binding affinity in units of concentration. A high value points to lower affinity. For B1, the Kd came to 2900 nM.
